Source: the DeepSol protein solubility set

Test: soluble on expression in E. coli; label from the status in PepcDB or PDB records

| Sequence | soluble on expression in E. coli |
| --- | --- |
| MAHHHHHHMLTKDADCEKSQQQKLEEDIKSPCTPSFHWVSDEDPKSDRATNHGCAKPLDWSPQTPETPPMSVAELRVTTVADTSETETTSESATHGNELRANEGESSASGTLEKPAGGVAAAGGAAPAAVPQKTEERGSSVPLKHKRSYGASDAVSSSSCHVDALGDLAGSVRQHHPTSTHTLDTSSSNGVGDAAKHAVAAGHVDESLPPPLSGVFFPFTACDAVTTASLVTLISSYCDVLTLVQLMRVNRSAHLLATSDAVWKPLLVSMNLPPLLAAYERDNDYYDFFVKDIITTRALHGHYTFQAANAASGSRESVSTTSGSRSAVMNRNYVSRDEDSLQDDIFNIASLQLLISAASLGQSNHLIGRVQLLITYKNESMEVLQGSCRFSVHRRCFSLCCSAFGTVKRGPVFTVAVATVTKPWANEGFQHFREHKNGIRLVMAPVLWEGPSPGSQITENDILVVSRPKPVPSLITSTTGSAAANSSLGAPTASRG | not soluble |
| MSLSHLLELYINFKGEAKEAIAFYEDVFDTKCQNLMTFGEAPEDPEHPINDEIKDLVMNASIIIEGTYVMISDVPDMFGFEVTEGNNLSLVVSTDDDEKIDRLFKRLSEGGTVTMPFLKLFGPKSMVPEGGSHHHHHH | soluble |
| MDKVLNREESLQLMDLLGLERSAWGNIPLMRKAYLKKCKEFHPDKGGDEEKMKKMNTLYKKMEDGVKYAHQPDFGGFWDATEVFASSLNPGVDAIYCKQWPECVKKMSTNCICLLCLLRMKHENRKLYRKDPLVWVDCYCFDCFRMWFGLDLCEGTLLLWCDIIGQTTYRDLKL | soluble |
| MQASQFSAQVLDWYDKYGRKTLPWQIDKTPYKVWLSEVMLQQTQVATVIPYFERFMARFPTVTDLANAPLDEVLHLWTGLGYYARARNLHKAAQQVATLHGGKFPETFEEVAALPGVGRSTAGAILSLSLGKHFPILDGNVARVLARCYAVSGWPGKKEVENKLWSLSEQVTPAVGVERFNQAMMDLGAMICTRSKPKCSLCPLQNGCIAAANNSWALYPGKKPK | soluble |
| MGSDKIHHHHHHMKKVRAAIVGYGNIGHYVLEALQAAPDFEIAGVVRRAGAENKPEELANYAVVKDIKELEGVEVAILCTPTRSVEKYAKEYLAMGINTVDSFDIHTGIVDLRRTLDATAKEHKAVSIISAGWDPGSDSIVRTMLEAIAPKGITYTNFGPGMSMGHTVAVKAIDGVKAALSMTIPTGTGIHRRMVYIELKDGYKFEEVAAAIKADPYFVNDETHVKLVPSVDALLDMGHGVNLTRKGVSGKTQNQLFEFNMRINNPALTAQVLVCVARASMKQQPGCYTMVEVPVIDLLPGDREEWIGHLV | not soluble |
| MKVLDSRDFAKVKAIAIERASYRNIGALAVYIGSMTGMRISEVLALTWPDIDTKLCVIHVTRSWDHLYGTGFKPTKTDSSVRDIEISPSVIELLNKIHQEQAASYLRTGYRDEDQMIMRDPRHNVITDSACNKALHVIQNKAGIPEDKQITFHGLRHSHVSYLISKGVDIYYISKRLGHSDVTITMKVYGHLLEHHHHHH | soluble |
| MSLRTTHIPLVAIVLASVCSSLAAPKAGGLELIILHNNDMHARFEQTGAYSNDCQPSDVASNRCYGGFARVAHKVREYRATEASGGLPVLYLNAGDTYTGTPWFSVFKDNITAAFLNILKPDAISLGNHEFDLGVEGLVPFLNEVDFPVLVTNLDLSKTPEMQTSRSLQRSIIFTKAGVRIGVIGYLTPETKQLAPINTVEFLDEIEEINKEATSLKNQGVNILIALGHSGLERDKEIAAQCPDVDLVIGGHSHTFLYSGTAPDVEDPAGPYPVMVKNAAGKEVPVVQAYAYTKYLGYLHLQFDTEGNLIELDGTPLLLNGTVERDSDVLQLLELYRPGILALDAQIGHSNVFLDSSRCRFEECNIGNMIADSLVITYATTREQSNDGFWTDAAIGFIQGGGIRASVNAGPITMKDLKTVLPFGNAMVVTDITGAQLRQMLEQSVHRYDGVSGYGEFLQMAGVNVEYDLSRPPMQRVVHVKVRCARCQVPAYEELQDDGVYRVILSQFLYDGGDGYEMLPGSPRQLLTFGEYEITEEYLKRYSPIYPAIEWRIRMQGQPNVTEGHHHHHH | soluble |
| EVVVVGYQEVRRRDLTGSVAKANMADVLTAPVASFDQALGGRIAGVNVTSGEGMPGGNMSIVIRGNNSLTQENSPLFVIDGFPIEDSSAASTLNPSDIESLDFLKDASATAIYGARGANGVVIITTKKGK | not soluble |
| MGSDKIHHHHHHMTTATHPNDALFAGEKSFPVLAACEHFAGSEKLIGKAMDLQVEYGPVFDVTCDCEDGAAAGQEREHAEMVARMIASDRNVHGRAGARIHDPSHPAWRQDVDIIVNGAGGRLAYITVPKATNSGQVAEVIRYIGDVAKRAGLDKPVPVHVLIETHGALRDVFQIAELPNIEVLDFGLMDFVSGHHGAIPAAAMRSPGQFEHALLVRAKADMVAAALANGIVPAHNVCLNLKDAEVIASDACRARNEFGFLRMWSIYPAQIQPIVNAMRPDFTEVEDAAGILVAAQDADWGPIQYKGELHDRATYRYFWEVLQKAKVTGMAVPAEAERRFFVN | not soluble |
| MPSNSTTGAQKCSRKVHSLKFKLEAIEYASKFSKTKAARDLKVSRQCIQDWVAQKTKIESQLKSTNKTAPKRLEGGGRPVQRETVDESVLRWFRDQREKKFRVSRNLIRQKAKEICGEDDFKASTGWLQKFMRRHHLSTRRATTTCQKEPDEFAKKIVDYVLFVEKMRLQNKYTDTHIFAADETAVYLDFSNSLTLNEKGAREVGKTNTLFFYFSHPMMKRCLILFQVPVKTTGHEKMHVTVLLTARADGYKCRPYVLLPRTRPDKEIAARFKNSLQLSWCNRTFFNDEVTEDYLNTIIGPPFFGKRLLAWDAFRCHISDATKRVLKNLKVDTAVVPGGCTKFVQAPDVYWNSPFKASIRRSYEDWMVHGQKSFTKSNNMRPPSMLQYLEWIENAWNDLPKDLILKSFKGCALTIATDGSEDNQVHCFAPNGSIPSGLDLLNSTRIENSLVDLVQDIGIDESQEEGNESDNSIISVG | not soluble |
| MSISKDSRIAIIGAGPAGLAAGMYLEQAGFHDYTILERTDHVGGKCHSPNYHGRRYEMGAIMGVPSYDTIQEIMDRTGDKVDGPKLRREFLHEDGEIYVPEKDPVRGPQVMAAVQKLGQLLATKYQGYDANGHYNKVHEDLMLPFDEFLALNGCEAARDLWINPFTAFGYGHFDNVPAAYVLKYLDFVTMMSFAKGDLWTWADGTQAMFEHLNATLEHPAERNVDITRITREDGKVHIHTTDWDRESDVLVLTVPLEKFLDYSDADDDEREYFSKIIHQQYMVDACLVKEYPTISGYVPDNMRPERLGHVMVYYHRWADDPHQIITTYLLRNHPDYADKTQEECRQMVLDDMETFGHPVEKIIEEQTWYYFPHVSSEDYKAGWYEKVEGMQGRRNTFYAGEIMSFGNFDEVCHYSKDLVTRFFV | soluble |
| MIRKATWADAPAIASVHVESWKTTYSGIVPDAYLETLSVGEKQPLWEKVLSQSGHSVFVAEENGRVVGFVSGGPNRAADGPIAKYDGELYAIYLLKEVQGKGLGRQLVQALTRHLAQKGIHSLVVWVLADNPSRGFYERLGGEKVAEERVEIGGKALWEWCYELARRPIDGTVGGLPNRAAA | not soluble |
| MKKILFDVDGVFLSEERCFDVSALTVYELLMDKCYLGLHSHIDWETLTDNDIQDIRNRIFQKDKILNKLKSLGLNSNWDMLFIVFSIHLIDILKKLSHDEIEAFMYQDEPVELKLQNISTNLADCFNLNEQLPLQFLDNVKVGKNNIYAALEEFATTELHVSDATLFSLKGALWTLAQEVYQEWYLGSKLYEDVEKKIARTTFKTGYIYQEIILRPVDEVKVLLNDLKGAGFELGIATGRPYTETVVPFENLGLLPYFEADFIATASDVLEAENMYPQARPLGKPNPFSYIAALYGNNRDKYESYINKQDNIVNKDDVFIVGDSLADLLSAQKIGATFIGTLTGLKGKDAAGELEAHHADYVINHLGELRGVLDNLLEHHHHHH | soluble |
| MPSAHSVKLRPLEREDLRYVHQLDNNASVMRYWFEEPYEAFVELSDLYDKHIHDQSERRFVVECDGEKAGLVELVEINHVHRRAEFQIIISPEYQGKGLATRAAKLAMDYGFTVLNLYKLYLIVDKENEKAIHIYRKLGFSVEGELMHEFFINGQYRNAIRMCIFQHQYLAEHKTPGQTLLKPTAQLEHHHHHH | not soluble |
| MTRVAINGFGRIGRMVFRQAIKESAFEIVAINASYPSETLAHLIKYDTVHGKFDGTVEAFEDHLLVDGKMIRLLNNRDPKELPWTDLGVEVVIEATGKFNSKEKAILHVEAGAKKVILTAPGKNEDVTIVVGVNEDQLDITKHTVISNASCTTNCLAPVVKVLDEQFGIENGLMTTVHAYTNDQKNIDNPHKDLRRARACGQSIIPTTTGAAKALAKVLPHLNGKLHGMALRVPTPNVSLVDLVVDVKRDVTVEAINDAFKTVANGALKGIVEFSEEPLVSIDFNTNTHSAIIDGLSTMVMGDRKVKVLAWYDNEWGYSRRVVDLVTLVVDELAKQENVQHI | soluble |
| MAQVRKAHPKDLAAIARLSHQTLFLGREGPKVFPSETLWGALFVAPYLEAGCCNLVAEEEGRVVGYILGACADRPLALAFAKRLLWALPRLLLGRFGPPLPHLRYLLRLLRYPGPKAPKDRYPAHLHIAVDPEAQGHGVGKALLAAFLKCLREKGVPGVQLATTRANRAARGLYRAMGFRVYAKRASPFWAPYLGRPLIHEVWVRDLG | soluble |
| MDKNWMIAMHNPATIYNPNAQTEFVEFPIYTVLIDHPEGKILFDTACNPNSMGPQGRWAEVTQQMFPWNASEECYLHNRLEQLKVRPEDIRYVVASHLHLDHAGCLEMFTNATIIVHEDEFNGALQCYARNQKEGAYIWADIDAWIKNNLQWRTVKRHEDNILLAEGVRVLNFGSGHAWGMLGLHVELPETGKIILASDAIYTAENYGPPVKPPGIIYDSLGYVNTVERIRRIAQETNSKIWFGHDAEQFKQFRKSTEGYYE | not soluble |
| MSLVEDGKATLGLRNFYINRNFTNPSNPQSKAEEWTQSFILDARSGFTEGPIGFGVDVLGLWSVKLDGGGGTYGTALLPRHDDGRPADDYGRLAVAGKARISKTELKIGEWMPVLPILRSDDGRSLPQTFRGGQVTSNEIAGLTLYGGQFRGNSPRNDASMEDMSYGGGVSDRFNFVGGEYKFNQDRTQVGLWNAVLKDVYQQQYLQLSHSQPVGDWTLGANLGYFHGDEDGSERAGQLDNKTYSGMFSAKYGGSTFWVGLQKVDGDTWMRVNGTSGGTLANDSYNSSFDNANERSWQVRHDFNFVTVGVPGLTLMNRYISGRDVHSGGVTDGKEWVRETELAYVIQSGAFKDLSVKWRNSSIRRDYSNNEFDENRLIFNYPLSLLEGHHHHHH | soluble |
| MEKHPGKLFYRLSRLAPGDALPLKRGPKAKVYANPLETQALPPFRQDGGPPLFRAMAHLRPLLPEVGASLTLKDLSQVLYPLAEREGRRGFPSAGEAYPLEAYLVVRRVEGVFPGVYHYFPREHQLFQIASKVEEAAWAEALMGVALDRAAVLLVLTLLPERSEALFGLRGYRYALLEAGYAAGLVLLAAVGQGLAAYPAETFHDEGVARLLGLPEGEYPGVVVVLGR | soluble |
| TAMRALIESLPTITEGEGRFVPYNDDEGGEEENVCTTEHVEMAKAKNWKVLTSWGEPFPGITALISIEGESEYSVYAQDGILYLSGMEQGLPVQ | not soluble |
| MGAFFVGVIWHFPVLAFCPLPDKPQWVAVRQVVDGDTLRLVDGRSVRLIGINAPEMGRKGRTSEPYAEAARRRLQALVKANDDRVGLVPGVEGKDKYGRTLAHIYSRNGDNLEAQLLSEGLGYRVAIAPNVRLSGCQQLAEQAARQAGVGLWRHSPVVAASDVRQSGFAVVRGRIEGIERNRGGVWLTLGSTLVLQVPARLQRNFPASFFDNLKGRQVEARGWVLDRSRRGGLKPGQRRWVLPLTDPSMLERISGLEHHHHHH | not soluble |
